Molecular target: T1, ofd1_human OFD1 (UniProt O75665)
T1 sequence: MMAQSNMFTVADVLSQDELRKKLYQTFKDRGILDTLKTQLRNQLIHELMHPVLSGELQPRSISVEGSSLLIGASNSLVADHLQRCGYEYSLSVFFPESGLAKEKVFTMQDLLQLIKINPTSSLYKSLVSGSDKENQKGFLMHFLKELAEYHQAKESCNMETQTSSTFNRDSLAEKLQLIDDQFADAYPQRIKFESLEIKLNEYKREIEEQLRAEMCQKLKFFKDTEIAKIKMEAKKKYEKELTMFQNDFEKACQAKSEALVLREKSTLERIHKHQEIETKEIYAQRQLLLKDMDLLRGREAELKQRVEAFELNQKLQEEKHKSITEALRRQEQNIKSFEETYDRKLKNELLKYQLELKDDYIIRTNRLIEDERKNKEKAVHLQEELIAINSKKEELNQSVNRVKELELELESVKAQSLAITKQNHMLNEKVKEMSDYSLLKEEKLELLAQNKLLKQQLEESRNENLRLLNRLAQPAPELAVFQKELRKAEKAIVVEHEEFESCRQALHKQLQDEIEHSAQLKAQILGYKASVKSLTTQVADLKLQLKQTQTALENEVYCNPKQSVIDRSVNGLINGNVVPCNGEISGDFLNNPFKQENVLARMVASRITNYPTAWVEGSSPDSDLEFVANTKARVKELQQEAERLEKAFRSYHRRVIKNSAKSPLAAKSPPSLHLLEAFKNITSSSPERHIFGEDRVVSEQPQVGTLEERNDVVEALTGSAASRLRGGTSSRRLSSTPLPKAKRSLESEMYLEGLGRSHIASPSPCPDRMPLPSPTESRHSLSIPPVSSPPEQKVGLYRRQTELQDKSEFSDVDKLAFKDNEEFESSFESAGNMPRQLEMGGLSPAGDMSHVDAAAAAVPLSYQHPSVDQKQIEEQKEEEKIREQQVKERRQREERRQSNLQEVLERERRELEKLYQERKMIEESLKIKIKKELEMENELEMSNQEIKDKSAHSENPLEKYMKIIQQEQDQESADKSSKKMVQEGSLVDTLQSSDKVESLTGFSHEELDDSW

- effect of a mutation on the interaction: disrupting interaction
Substance: Microtubule-associated protein 1 light chain 3 beta (Homo sapiens) (from UniProt Q9GZQ8) F52A;L53A
